Assays:
[1] = tested on: full thickness 12 mm wound; test: Wound healing assay (Example 3.6); type: in vivo, male Lewis rats; conditions: for Wound areas: mg/wound: Wound heal 1 0.01, Wound heal 2 0.1, Wound heal 3 1.0, Aloe vera 20; for wounds larger than wounds on rats receiving buffered saline only: 1.0 mg/wound
Experimental: Thirty male Lewis rats were divided into 5 groups of 6 rats as outlined below in Table 7. Rats were age and weight matched. Rats were permitted rodent diet and water ad libitum throughout the study.
The animals were weighed two days before the start of the trial and weights grouped from lightest to heaviest. Animals were then randomly assigned to groups based on body weights, using 5×5 Latin squares so that group means were as similar as possible.
Approximately 30 minutes before wounding, each animal was given a subcutaneous injection of Temgesic at the base of the neck (0.075 mg/kg body weight). Each animal was anaesthetised using 3% halothane in oxygen. Once the pedal reflexes had been abolished, the animals were shaved from the base of the skull to the hind limb area using electric clippers. The skin on each rat was disinfected using 0.5% chlorhexidine in 70% ethanol. For each animal, the distance from the base of the skull to the top of the hip joint was measured and the wound position marked with a black felt tip pen, 6 cm below the base of the skull along the spinal axis.
Using asceptic techniques a full thickness incision was made at this position using a sterile 12 mm biopsy punch. Any bleeding was removed using cotton swabs. Care was taken that the punch was dry and that no debris (eg., skin, hair) entered the wounds. […] After photography of each wound using a Canon Digital EOS 20D camera with a F2.8 Macro lens, an aliquot of the sample was applied to the wounds on the rats in Groups A, B, D and E using a Gilson Microman CP 100 positive displacement pipette. The biopsy punch was wiped inside with a swab soaked in sterile saline to remove any tissue fluids and/or debris. The punch was then immersed in 70% ethanol before use on the next animal.
For applications and photographs after day 1 the animals were restrained without being anaesthetised.
(§1) Body weights were measured on days 1, 3, 5, 7, 9, 11, 13, 15, 17, 19, 21 and 23 and deviations from original body weights (on day 1) calculated for each animal. On the same days, photographs were taken using a Canon Digital Eos 20D with a F2.8 Macro lens. Photographs were downloaded and wound areas measured using NIH Image J 1.633u software (National Institutes of Health (NIH), Rockville Pike, Bethesda, Md., United States). A laser speckle image was also taken at the same time as each space photograph was taken. Animals were weighed every second day when the photographic record of wound closure rate was also made.
The redness and swelling of each wound were individually scored from visual observation. These were scored on a scale of 0-3 as follows:
Descriptive statistics were evaluated. […] Major analyses were performed on all data points collected. Preliminary analyses were undertaken on control wounds only using t-tests. Univariate ANOVAs were used to assess differences between treatment and controls and samples nested within treatments. A separate ANOVA assessed whether there was a dose response using the treatment samples only. Assumptions for normality were tested using q-q plots on studentized residuals and heterogeneity of variances were tested using Levene's tests. SPSS 11 for Mac OSX was used for assumption testing and statistical analysis.

[2] = Body weight during wound healing assay (Example 3.6); type: in vivo, male Lewis rats; conditions: PBS control returned by day 11
Experimental: as §1

elastase I [3] = target: T1, elastase I (Sus scrofa, UniProt P00772); test: Chaperone activity: protection of elastase I from heat denaturation; type: biochemical; conditions: boiling water bath for 30 seconds
T1 construct: purchased Worthington Biochemical Corporation 2280
T1 sequence (P00772 27-266): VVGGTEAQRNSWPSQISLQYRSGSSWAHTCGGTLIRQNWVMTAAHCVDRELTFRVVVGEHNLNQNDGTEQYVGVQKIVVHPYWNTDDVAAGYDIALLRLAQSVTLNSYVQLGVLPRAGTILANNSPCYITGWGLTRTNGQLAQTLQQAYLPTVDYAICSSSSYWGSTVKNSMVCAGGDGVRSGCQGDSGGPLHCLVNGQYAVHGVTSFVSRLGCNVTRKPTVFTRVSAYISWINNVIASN
Experimental: Bovine crystallin fractions were tested for ability to protect the proteases elastase I, trypsin and chymotrypsin from heat denaturation. Briefly, the proteases were heated in a boiling water bath for 30 seconds in the presence or absence of the crystallin fractions.

rat aortic ring = test: Rat aortic ring angiogenesis assay (Example 4.3); type: cell-based, Lewis rat; conditions: second study, 200 μg/mL
Experimental: Four separate studies were carried out to determine the angiogenic effect of crystallin preparations. Each sample was assayed in triplicate. A positive control (VEGF) and a vehicle control containing PBS was also run in triplicate. […] Preliminary statistical significance was assessed with an independent Student t-test at α<0.05. Graphical representation of averages +/− standard errors were determined.
The first study investigated the angiogenic potential of bovine fractions prepared by gel filtration analysis as described in Example 3.2. As described in that Example, the alpha fraction contained αA and αB crystallin, the β H fraction contained all β crystallins, the β L1 fractions contained a sub-fraction of beta crystallins and a high content of βB2 crystallin and beta B3 crystallin and the beta L2 fraction contained only βB2 crystallin and βA3 crystallin.
(§2) The second study investigated the angiogenic potential of purified crystallin proteins. Briefly, βB3 crystallin was prepared by heating (97-99° C. for 3 minutes, supernatant collected by centrifugation) and was essentially homogenous. Alpha A crystallin and αB crystallin samples were prepared by ion exchange chromatography as described above and were also essentially homogenous. The Wound Heal 1-3 preparations were also tested in this study.
The third study investigated the angiogenic potential of ovine crystallin proteins compared to their bovine equivalents. Both bovine and ovine crystallin proteins were purified essentially to homogeneity by RP. HPLC using a C4 column, as described below in Example 5. Homogeneity was confirmed by SDS-PAGE. The effect of elastase I treatment of βB2 crystallin was also investigated by comparing the angiogenic potential of intact βB2 crystallin (i.e. undigested) with elastase I digested βB2 crystallin. Elastase I treatment releases the N-terminal and C-terminal extensions of the crystallin protein leaving a globular protein that is monomeric.
In the final study, ovine βB2 crystallin was tested alone or in combination with indoleamine 2,3-dioxygenase (IDO) and ovine alpha B crystallin was tested alone or in combination with tryptophan dioxygenase (TDO)
Briefly, in each study, a single Lewis rat was euthanised and its aorta transferred to a 15 mL Falcon tube containing 10 mL of MCBD-131 medium and stored on ice. After transferring the aorta to a 92×17 mm petri dish containing 10 mL of ice cold MCDB-131, the outer fatty tissue was removed under an Olympus SZ-60 Dissecting microscope. This was undertaken with fibre optic lamp illumination. The aorta was then cut into sequential rings approximately 2 mm in size. Connective tissue was removed with micro scissors and forceps from the outside of the individual rings. Clean rings were stored in a separate petri dish in sterile MCDB-131 medium. Rings were pre-incubated overnight at 37° C. in an atmosphere of 97% air/3% CO2.
To prepare gel sandwiches, 75 mg of fibrinogen was added to 25 mL MCDB-131 medium and shaken gently on a rocker roller for 5 minutes. 3 ml of MCDB-131/fibrinogen solution was added to a 15 mL Falcon tube, followed by 10 μL of thrombin and quickly mixed. A 0.4 mL volume of this fibrinogen-thrombin solution was added to each well on a 24 well plate, 6 wells at a time. Aortic rings were then placed on the setting gel, pushed gently into the gel and left for 45 minutes. These steps were then repeated so each ring was covered with 0.4 mL of gel. Gels were left to set at room temperature. […] The plate was then placed in incubator (37° C., 97% air/3% CO2).
Culture plate were examined daily for signs of infection (fungal growth or yellowing of media) in the wells using an inverted microscope. The growth of microvessels from their perimeters was also observed. Digital photographs of each well were taken seven days after plating using a Pixera PVC-100C digital camera mounted on an OLYMPUS CK-12 microscope and stored on a Macintosh Computer. […]

elastase I [4] = target: T1, elastase I; test: Elastase I inhibitory activity of crystallin fractions; type: biochemical
Experimental: The bovine crystallin fractions were tested for ability to inhibit elastase I activity.

[5] = Stability to heat treatment; type: physicochemical
Experimental: as §2

B1: Wound Heal 3: bovine αB crystallin, DEAE Sepharose fast flow fractions 37-47; Group D of Example 3 (protein)
chain: MDIAIHHPWIRRPFFPFHSPSRLFDQFFGEHLLESDLFPASTSLSPFYLRPPSFLRAPSWIDTGLSEMRLEKDRFSVNLDVKHFSPEELKVKVLGDVIEVHGKHEERQDEHGFISREFHRKYRIPADVDPLAITSSLSSDGVLTVNGPRKQASGPERTIPITREEKPAVTAAPKK
Wound areas ([1]; Day 1 (=100)): 100 | Wound areas ([1]; Day 3): 93 | Wound areas ([1]; Day 5): 82 | Wound areas ([1]; Day 7): 76 | Wound areas ([1]; Day 9): 58 | Wound areas ([1]; Day 11): 34 | Wound areas ([1]; Day 13): 23 | Wound areas ([1]; Day 15): 15 | Wound areas ([1]; Day 17): 9 | Wound areas ([1]; Day 19): 5 | Wound areas ([1]; Day 21): 2.5 | Wound areas ([1]; Day 23): 1.4 | wounds larger than wounds on rats receiving buffered saline only ([1]; day 3): 8.8% | wounds larger than wounds on rats receiving buffered saline only ([1]; day 7): 7.7% | wounds larger than wounds on rats receiving buffered saline only ([1]; day 11): 28.7% | healing rate compared to Control group (PBS), in words ([1]; rat, in vivo): inhibited the rate of healing | day by which mean body weight had returned to the starting (pre-wounding) weight [2]: ≤ 12 days | chaperone activity: protection of elastase I from heat denaturation (in words) (elastase I [3]): Chaperone activity was observed | % of Control (rat aortic ring; microvessel growth): 93.09%

B2: Gamma S crystallin: gamma S gel filtration fraction of bovine crystallin extract (protein)
chain: SKAGTKITFFEDKNFQGRHYDSDCDCADFHMYLSRCNSIRVEGGTWAVYERPNFAGYMYILPRGEYPEYQHWMGLNDRLSSCRAVHLSSGGQYKLQIFEKGDFNGQMHETTEDCPSIMEQFHMREVHSCKVLEGAWIFYELPNYRGRQYLLDKKEYRKPVDWGAASPAVQSFRRIVE
elastase I inhibitory activity (in words) (elastase I [4]): considerable elastase inhibitory activity

B3: βB2 crystallin: bovine βB2 crystallin protein (SEQ ID No. 1); in b236 the value is that of Wound Heal 2 (protein)
chain: ASDHQTQAGKPQPLNPKIIIFEQENFQGHSHELNGPCPNLKETGVEKAGSVLVQAGPWVGYEQANCKGEQFVFEKGEYPRWDSWTSSRRTDSLSSLRPIKVDSQEHKITLYENPNFTGKKMEVIDDDVPSFHAHGYQEKVSSVRVQSGTWVGYQYPGYRGLQYLLEKGDYKDSGDFGAPQPQVQSVRRIRDMQWHQRGAFHPSS
modifications: bovine
stability to heat treatment (in words) [5]: unstable to heat treatment | increase in microvessel growth (stimulatory) (rat aortic ring): 21.83%

Source: patent publication US8404644B2, “Agents with angiogenic and wound healing activity” (Meat & Livestock Australia Limited, priority 2007, dated 2013)
